Data published in patent US20210324080A1 (JIANGSU HUAIYU PHARMACEUTICAL, published 2021).
Where two headings read alike, the source gives them in different places.

T1: CTLA-4-hFc (immunogen A; hFc-labeled CTLA-4 extracellular domain protein) (human, UniProt P16410 36-161)
T1 construct: range 36-161; Made in HEK293 cells, purified on protein A; also called CLTA-4-hFc; CTLA-4 protein; not shown: human IgG Fc fragment (hFc) of the pCpC vector
T1 sequence (looked up): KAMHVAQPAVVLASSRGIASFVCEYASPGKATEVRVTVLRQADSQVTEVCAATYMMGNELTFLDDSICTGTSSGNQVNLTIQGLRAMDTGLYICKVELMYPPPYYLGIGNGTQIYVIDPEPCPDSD


Tests used:
[1] = target: T2, monkey CTLA-4, full length, on transfected HEK293 cells (monkey); assay: FACS, monkey CTLA-4 expressing cells
T2 construct: whole, on cells; also called cCTLA-4; HEK293-cCTLA-4
Description: The pIRES plasmid with the monkey-derived CTLA-4 full-length gene was transfected into the HEK293 cell line to construct a HEK293 stable cell line containing monkey CTLA-4 (herein referred to as HEK293-cCTLA-4 stable cell line), wherein the database accession number of the monkey CTLA-4 nucleotide sequence is XM_005574014.1. The HEK293-hCTLA-4 stable cell line and HEK293-cCTLA-4 stable cell line were expanded in a T-75 cell culture flask to a 90% confluence. The medium was aspirated, and the cells were washed with HBSS buffer (Hanks Balanced Salt Solution, purchased from Invitrogen) twice, then treated with an enzyme-free cell dissociation fluid (Versene solution, purchased from Life technology) and the cells were collected. The cells were washed with HBSS buffer twice. After counted, the cells were diluted with HBSS buffer to 2×10⁶ cells per ml, added with 1% goat serum blocking solution, wherein the percentage was the mass percantage. Cells were incubated on ice for 30 minutes, then washed twice with HBSS buffer by centrifugation. The collected cells were suspended in the FACS buffer (HBSS containing 1% BSA, wherein the percentage was the mass percantage) to 2×10⁶ cells/ml, added as 100 microliters per well to a 96-well FACS reaction plate, added with 100 microliters per well of the purified CTLA-4 antibody sample to be tested, incubated on ice for 2 hours. The plate was washed twice with the FACS buffer by centrifugation, added with 100 microliters of fluorescent (Alexa 488)-labeled secondary antibodies (purchased from Invitrogen) per well, and incubated on ice for 1 hour. The plate was washed 3 times with FACS buffer by centrifugation, added with 100 μl fixative solution [4% (v/v) Paraformaldehyde] per well to suspend the cells. 10 minutes later, it was washed 2 times with FACS buffer by centrifugation. The cells were suspended with 100 microliters of FACS buffer, FACS (FACS Calibur, purchased from BD) was used for detection and the results were analyzed.

[2] = target: T1, CTLA-4-hFc (immunogen A; hFc-labeled …); assay: receptor-ligand blocking assay: CTLA-4 protein, antibody titrated, blocked ligand B7.1, inhibition (%)
Procedure: (§1) CTLA-4 extracellular domain protein (CTLA-4-hFc) was diluted with PBS to a final concentration of 1.0 μg/mL, and then added to a 96-well ELISA plate as 100 μl per well. The plate was covered with a plastic film and incubated overnight at 4° C. The plate was washed twice with plate washing solution [PBS containing 0.01% (v/v) Tween 20] on the next day, and added with blocking solution [PBS containing 0.01% (v/v) Tween 20 and 1% (w/w) BSA] and blocked at room temperature for 2 hours. […] After 2 hours, the plate was washed 3 times with a plate washing solution [PBS containing 0.01% (v/v) Tween 20]. HRP (horseradish peroxidase) labeled avidin diluent (purchased from Sigma) was added 100 microliters per well, and after the plate was incubated for 2 hours at 37° C., it was washed with plate washing solution [PBS containing 0.01% (v/v) Tween 20] for 3 times. […] TMB substrate was added to each well. After incubated at room temperature for 30 minutes, the plate was added with […] stop solution (1.0N HCl) to each well. An ELISA plate reader (SpectraMax 384plus, Molecular Device) was used to read the A450 nm value.

[3] = target: T1, CTLA-4-hFc (immunogen A; hFc-labeled …); assay: as above; remark: listed apart in the source
Procedure: as §1

MFI at 0.000128 nM [1]	MFI at 0.0128 nM [1]	MFI at 0.064 nM [1]	MFI at 0.32 nM [1]	MFI at 1.6 nM [1]	MFI at 8 nM [1]	MFI at 40 nM [1]	MFI at 200 nM [1]	IC50 (read off the curve) [2]	IC50 (read off the curve) [3]	Binder
2	23	67	225	513	754	910	831	1 to 2 nM		97A8D1 fully human CTLA-4 antibody (human IgG1, kappa) (antibody, V domains shown, also called mAb49; mAb049) VH: QVQLVESGGGVVQPGRSLRLSCVASGFTFNNYGMNWVRQAPGKGLEWVAVIWYGGRNKFYADSVKGRFTISRDNSKNTLYLEMNSLRAEDTAVYYCARADWGGWFDPWGQGTLVTVSS VL: EIVLTQSPGTLSLSPGERATLSCRASQSVSSTYLAWYQQKPGQAPRLLIHGAFSRATGIPDRFSGSGSGPDFTLTISRLEPEDFAVYYCQQYGTSPFTFGPGTKVDIK
2	34	98	261	455	654	712	668		~1 nM	31C12F3 fully human CTLA-4 antibody (human IgG1, kappa) (antibody, V domains shown, also called mAb010) VH: QVQLVESGGGVVQPGRSLILSCAASGFTFSSYGMHWVRQAPGKGLEWVAVVWYDGSNKYYADSVKGRFTISRDNSKNTLYLQMSSLRAEDTAVYYCARGGIVVPGLFEYWGQGSLVTVSS VL: DIQMTQSPSSLSASVGDRVAITCRTSQSISNLLNWYQQKPGKAPELLIYAPSSFQSGVPSRFRGSGSGTDFTLTISSLQPEDFATYYCQQSYSTPFTFGPGTKVDIK
2	22	68	208	465	722	800	711	1 to 2 nM	~2 nM	92C8B6 fully human CTLA-4 antibody (human IgG1, kappa) (antibody, V domains shown, also called mAb42; mAb042) VH: QVQLVESGGGVVQPGRSLRLSCAASGFTFSNFGMHWVRQAPGKGLEWVAVIWYDGSNKYYADSVKGRFTISRDNSKNTLFLQMNGLRAEDTAVYYCAKGGILMAGTLDYWGQGTLVTVSS VL: DIQMTQSPSSLSASVGDRVTITCRASQSVSTYLNWYQQKPGKAPKLLIYAASSFQSGVPSRFSGSGSGTDFTLTISSLQPEDFATYFCQQSYSTPFTFGPGTKVDIK
2	23	69	219	421	619	626	643		~1 nM	40C4C6 fully human CTLA-4 antibody (human IgG1, kappa) (antibody, V domains shown, also called mAb09; mAb009) VH: QVQLVESGGGVVQPGRSLRLSCAASGFTFSSYGMHWVRQAPGKGLEWVAVIWYDGRNKYYADSVKGRFTISRDNSKNTLYLQMNSLRAEDTAVYYCARASGSYSYYFDYWGQGTLVTVSS VL: DIQMTQSPSSLSASVGGRVTITCRASQSISSFLNWYQHELGKAPKLLIYGASSLQSGVPSRFSGSGSGTDFTLTISSLQPEDFATYYCQQTYSTPFTFGPGTKVDIK
